For one assay, the system named is 5HT2C receptor. The assay is described as follows: Antagonist binding to 5HT2C NPxxY motif alanine mutants (Table 1). As to conditions: for % of Wildtype binding / DPM1 / DPM2: antagonist Mesulergine binding; for DPM1: replicate 1; for DPM2: replicate 2; for Average - BG: average minus background; for Average: average of DPM1 and DPM2. Details: species or system human; Average / Average - BG: unit not given here. As for the experimental part: (§1) An alanine scan was carried out in a similar fashion on an adenosine A2A receptor along with the 5HT2C receptor in the presence of the antagonist Mesulergine. Both alanine scans were carried out in order to further stabilize the antagonist conformation. […] The motif in Adenosine A2A is NPFIY (SEQ ID NO: 364) and for the 5HT2C is NPLVY (SEQ ID NO: 363). Therefore mutations in this region of the receptor contain stabilising mutations specific to the agonist conformation and detrimentally effect antagonist binding.
5HT2C receptor was solubilised from transiently transfected mammalian cells about 40 hours post transfection, in 50 mM Hepes pH7.4/100 mM KCl/0.5% DDM/(0.1% CHS/0.6% CHAPS was added to cells for SCH23390 agonist assay) and protease inhibitor. Cell lysates were left at 4° C. on a rotator and then cleared by centrifugation at 13,200 rpm for 20 minutes at 4° C. Thermostability analysis was performed directly on the soluble lysate. The Tm was determined by incubating 108 μl of the lysate with [N^6-methyl-^3H]Mesulergine radioligand at a final concentration of 17 nM or 9 nM [^3H]SCH23390 for one hour at 4° C. The six ligand incubations are then incubated at six different temperatures from 25° C. to 55° C., for thirty minutes. Receptor bound and free radioligand were separated using G25 Sephadex spin columns.

The subject of another assay is adenosine A2A receptor. Kind of assay: Antagonist binding to adenosine A2A NPxxY motif alanine mutants (Table 1). Also on record: species or system human. The following applies: for % of Wildtype binding / DPM1 / DPM2: antagonist binding; for DPM1: replicate 1; for DPM2: replicate 2; for Average - BG: average minus background; for Average: average of DPM1 and DPM2. As for the experimental part: as §1
Adenosine A2A receptor was solubilised from transiently transfected mammalian cells about 36 hours post transfection, in 50 mM Tris pH7.4/400 mM NaCl/0.5% DDM and protease inhibitor. Cell lysates were left at 4° C. on a rotator and then cleared by centrifugation at 13,200 rpm for 20 minutes at 4° C. Solubilised receptors were then purified on Ni-NTA beads and eluted with 50 mM histidine. The eluted receptor was used in radioligand binding assay. The Tm was determined by incubating 108 μl of the eluate with Zm241385 radioligand at a final concentration of 100 nM for one hour at 4° C. The six ligand incubations are then incubated at six different temperatures from 20° C. to 50° C., for thirty minutes. Receptor bound and free radioligand were separated using G25 Sephadex spin columns.

B1: V367A: 5HT2C receptor NPLVY motif mutant V367A (protein, UniProt P28335 33-458, looked up, variant V367A)
5-hydroxytryptamine receptor …: IVTDIFNTSDGGRFKFPDGVQNWPALSIVIIIIMTIGGNILVIMAVSMEKKLHNATNYFLMSLAIADMLVGLLVMPLSLLAILYDYVWPLPRYLCPVWISLDVLFSTASIMHLCAISLDRYVAIRNPIEHSRFNSRTKAIMKIAIVWAISIGVSVPIPVIGLRDEEKVFVNNTTCVLNDPNFVLIGSFVAFFIPLTIMVITYCLTIYVLRRQALMLLHGHTEEPPGLSLDFLKCCKRNTAEEENSANPNQDQNARRRKKKERRPRGTMQAINNERKASKVLGIVFFVFLIMWCPFFITNILSVLCEKSCNQKLMEKLLNVFVWIGYVCSGINPLAYTLFNKIYRRAFSNYLRCNYKVEKKPPVRQIPRVAATALSGRELNVNIYRHTNEPVIEKASDNEPGIEMQVENLELPVNPSSVVSERISSV
B1: in the assay with 5HT2C receptor, the “% of Wildtype binding” value is 22.25%, the DPM1 worked out at 2512 DPM, the DPM2 is given as 2449 DPM and the “Average - BG” value was 2049. The Average with 5HT2C receptor is 2480.5.

B2: N364A: 5HT2C receptor NPLVY motif mutant N364A (protein, UniProt P28335 33-458, looked up, variant N364A)
5-hydroxytryptamine receptor …: IVTDIFNTSDGGRFKFPDGVQNWPALSIVIIIIMTIGGNILVIMAVSMEKKLHNATNYFLMSLAIADMLVGLLVMPLSLLAILYDYVWPLPRYLCPVWISLDVLFSTASIMHLCAISLDRYVAIRNPIEHSRFNSRTKAIMKIAIVWAISIGVSVPIPVIGLRDEEKVFVNNTTCVLNDPNFVLIGSFVAFFIPLTIMVITYCLTIYVLRRQALMLLHGHTEEPPGLSLDFLKCCKRNTAEEENSANPNQDQNARRRKKKERRPRGTMQAINNERKASKVLGIVFFVFLIMWCPFFITNILSVLCEKSCNQKLMEKLLNVFVWIGYVCSGIAPLVYTLFNKIYRRAFSNYLRCNYKVEKKPPVRQIPRVAATALSGRELNVNIYRHTNEPVIEKASDNEPGIEMQVENLELPVNPSSVVSERISSV
For the molecule B2, in the assay on 5HT2C receptor, the “% of Wildtype binding” value amounted to 36.35%, the DPM1 is recorded as 3988 DPM, the DPM2 was determined as 3569 DPM and the “Average - BG” value stood at 3347. The Average in the assay on 5HT2C receptor came out at 3778.5.

B3: P365A: 5HT2C receptor NPLVY motif mutant P365A (protein, UniProt P28335 33-458, looked up, variant P365A)
5-hydroxytryptamine receptor …: IVTDIFNTSDGGRFKFPDGVQNWPALSIVIIIIMTIGGNILVIMAVSMEKKLHNATNYFLMSLAIADMLVGLLVMPLSLLAILYDYVWPLPRYLCPVWISLDVLFSTASIMHLCAISLDRYVAIRNPIEHSRFNSRTKAIMKIAIVWAISIGVSVPIPVIGLRDEEKVFVNNTTCVLNDPNFVLIGSFVAFFIPLTIMVITYCLTIYVLRRQALMLLHGHTEEPPGLSLDFLKCCKRNTAEEENSANPNQDQNARRRKKKERRPRGTMQAINNERKASKVLGIVFFVFLIMWCPFFITNILSVLCEKSCNQKLMEKLLNVFVWIGYVCSGINALVYTLFNKIYRRAFSNYLRCNYKVEKKPPVRQIPRVAATALSGRELNVNIYRHTNEPVIEKASDNEPGIEMQVENLELPVNPSSVVSERISSV
B3: in the assay on 5HT2C receptor, the “% of Wildtype binding” value stood at 14.94%, the DPM1 was 1855 DPM, the DPM2 was 1760 DPM and the “Average - BG” value is given as 1376. In the assay on 5HT2C receptor, this molecule registered an Average of 1807.5.

B4: Y368A: 5HT2C receptor NPLVY motif mutant Y368A (protein, UniProt P28335 33-458, looked up, variant Y368A)
5-hydroxytryptamine receptor …: IVTDIFNTSDGGRFKFPDGVQNWPALSIVIIIIMTIGGNILVIMAVSMEKKLHNATNYFLMSLAIADMLVGLLVMPLSLLAILYDYVWPLPRYLCPVWISLDVLFSTASIMHLCAISLDRYVAIRNPIEHSRFNSRTKAIMKIAIVWAISIGVSVPIPVIGLRDEEKVFVNNTTCVLNDPNFVLIGSFVAFFIPLTIMVITYCLTIYVLRRQALMLLHGHTEEPPGLSLDFLKCCKRNTAEEENSANPNQDQNARRRKKKERRPRGTMQAINNERKASKVLGIVFFVFLIMWCPFFITNILSVLCEKSCNQKLMEKLLNVFVWIGYVCSGINPLVATLFNKIYRRAFSNYLRCNYKVEKKPPVRQIPRVAATALSGRELNVNIYRHTNEPVIEKASDNEPGIEMQVENLELPVNPSSVVSERISSV
Turning to B4, in the assay on 5HT2C receptor, the “% of Wildtype binding” value is listed as 11.22%, the DPM1 amounted to 1328 DPM, the DPM2 came to 1602 DPM and the “Average - BG” value came out at 1033.5. This molecule came in with an Average in the assay with 5HT2C receptor of 1465.

B5: P285A: adenosine A2A receptor NPFIY motif mutant P285A (protein, UniProt P29274 1-412, looked up, variant P285A)
Adenosine receptor A2a: MPIMGSSVYITVELAIAVLAILGNVLVCWAVWLNSNLQNVTNYFVVSLAAADIAVGVLAIPFAITISTGFCAACHGCLFIACFVLVLTQSSIFSLLAIAIDRYIAIRIPLRYNGLVTGTRAKGIIAICWVLSFAIGLTPMLGWNNCGQPKEGKNHSQGCGEGQVACLFEDVVPMNYMVYFNFFACVLVPLLLMLGVYLRIFLAARRQLKQMESQPLPGERARSTLQKEVHAAKSLAIIVGLFALCWLPLHIINCFTFFCPDCSHAPLWLMYLAIVLSHTNSVVNAFIYAYRIREFRQTFRKIIRSHVLRQQEPFKAAGTSARVLAAHGSDGEQVSLRLNGHPPGVWANGSAPHPERRPNGYALGLVSGGSAQESQGNTGLPDVELLSHELKGVCPEPPGLDDPLAQDGAGVS
Regarding B5, in the assay with adenosine A2A receptor, the “% of Wildtype binding” value was 7.69%, the DPM1 is 1488 DPM, the DPM2 is 1471 DPM and the “Average - BG” value was found to be 979.5. The molecule further displayed an Average in the assay on adenosine A2A receptor of 1479.5.

B6: 287A: adenosine A2A receptor NPFIY motif mutant, residue 287 to alanine (protein, UniProt P29274 1-412, looked up, variant I287A)
Adenosine receptor A2a: MPIMGSSVYITVELAIAVLAILGNVLVCWAVWLNSNLQNVTNYFVVSLAAADIAVGVLAIPFAITISTGFCAACHGCLFIACFVLVLTQSSIFSLLAIAIDRYIAIRIPLRYNGLVTGTRAKGIIAICWVLSFAIGLTPMLGWNNCGQPKEGKNHSQGCGEGQVACLFEDVVPMNYMVYFNFFACVLVPLLLMLGVYLRIFLAARRQLKQMESQPLPGERARSTLQKEVHAAKSLAIIVGLFALCWLPLHIINCFTFFCPDCSHAPLWLMYLAIVLSHTNSVVNPFAYAYRIREFRQTFRKIIRSHVLRQQEPFKAAGTSARVLAAHGSDGEQVSLRLNGHPPGVWANGSAPHPERRPNGYALGLVSGGSAQESQGNTGLPDVELLSHELKGVCPEPPGLDDPLAQDGAGVS
In the case of B6, in the assay on adenosine A2A receptor, the “% of Wildtype binding” value came out at 2.78%, the DPM1 is reported as 888 DPM, the DPM2 came to 820 DPM and the “Average - BG” value is 354. The same molecule gave an Average with adenosine A2A receptor of 854.

B7: Y288A: adenosine A2A receptor NPFIY motif mutant Y288A (protein, UniProt P29274 1-412, looked up, variant Y288A)
Adenosine receptor A2a: MPIMGSSVYITVELAIAVLAILGNVLVCWAVWLNSNLQNVTNYFVVSLAAADIAVGVLAIPFAITISTGFCAACHGCLFIACFVLVLTQSSIFSLLAIAIDRYIAIRIPLRYNGLVTGTRAKGIIAICWVLSFAIGLTPMLGWNNCGQPKEGKNHSQGCGEGQVACLFEDVVPMNYMVYFNFFACVLVPLLLMLGVYLRIFLAARRQLKQMESQPLPGERARSTLQKEVHAAKSLAIIVGLFALCWLPLHIINCFTFFCPDCSHAPLWLMYLAIVLSHTNSVVNPFIAAYRIREFRQTFRKIIRSHVLRQQEPFKAAGTSARVLAAHGSDGEQVSLRLNGHPPGVWANGSAPHPERRPNGYALGLVSGGSAQESQGNTGLPDVELLSHELKGVCPEPPGLDDPLAQDGAGVS
As for B7, in the assay on adenosine A2A receptor, the “% of Wildtype binding” value is 14.74%, the DPM1 was found to be 2150 DPM, the DPM2 stood at 2602 DPM and the “Average - BG” value was 1876. The molecule also came in with an Average in the assay with adenosine A2A receptor of 2376.

B8: F286A: adenosine A2A receptor NPFIY motif mutant F286A (protein, UniProt P29274 1-412, looked up, variant F286A)
Adenosine receptor A2a: MPIMGSSVYITVELAIAVLAILGNVLVCWAVWLNSNLQNVTNYFVVSLAAADIAVGVLAIPFAITISTGFCAACHGCLFIACFVLVLTQSSIFSLLAIAIDRYIAIRIPLRYNGLVTGTRAKGIIAICWVLSFAIGLTPMLGWNNCGQPKEGKNHSQGCGEGQVACLFEDVVPMNYMVYFNFFACVLVPLLLMLGVYLRIFLAARRQLKQMESQPLPGERARSTLQKEVHAAKSLAIIVGLFALCWLPLHIINCFTFFCPDCSHAPLWLMYLAIVLSHTNSVVNPAIYAYRIREFRQTFRKIIRSHVLRQQEPFKAAGTSARVLAAHGSDGEQVSLRLNGHPPGVWANGSAPHPERRPNGYALGLVSGGSAQESQGNTGLPDVELLSHELKGVCPEPPGLDDPLAQDGAGVS
In the case of B8, in the assay on adenosine A2A receptor, the “% of Wildtype binding” value worked out at 0.13%, the DPM1 is given as 519 DPM, the DPM2 was determined as 514 DPM and the “Average - BG” value stood at 16.5. Besides, the Average with adenosine A2A receptor was found to be 516.5.

Values taken from patent US8703915B2, “Mutant proteins and methods for producing them” (Heptares Therapeutics Limited, priority 2009, dated 2014).
